Reference: paper PMC10182070, “Ligand dependent interaction between PC-TP and PPARδ mitigates diet-induced hepatic steatosis in male mice” (Nature Communications, 2023)

T1: purified PPARδ ligand-binding domain (LBD), Cy5-labelled (human, Cy5 fluorophore (NHS) on lysine amines)
T1 chain: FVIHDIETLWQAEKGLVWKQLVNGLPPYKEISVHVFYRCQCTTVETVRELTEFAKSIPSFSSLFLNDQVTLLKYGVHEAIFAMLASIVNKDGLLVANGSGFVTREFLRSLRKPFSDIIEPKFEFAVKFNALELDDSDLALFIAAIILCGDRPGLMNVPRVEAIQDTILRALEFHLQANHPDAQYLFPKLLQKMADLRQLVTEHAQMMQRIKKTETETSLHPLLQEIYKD

T2: purified full-length PPARδ, Cy5-labelled (human, UniProt Q03181 1-441, Cy5 fluorophore (NHS) on lysine amines)
T2 construct: Full-length PPARδ in PSMT3 vector; also called FL-PPARδ; full-length (FL) PPARδ; source: E. coli BL21 DE3, purified (IMAC, Capto S and Capto Q, Superdex 75 SEC)
T2 sequence (looked up): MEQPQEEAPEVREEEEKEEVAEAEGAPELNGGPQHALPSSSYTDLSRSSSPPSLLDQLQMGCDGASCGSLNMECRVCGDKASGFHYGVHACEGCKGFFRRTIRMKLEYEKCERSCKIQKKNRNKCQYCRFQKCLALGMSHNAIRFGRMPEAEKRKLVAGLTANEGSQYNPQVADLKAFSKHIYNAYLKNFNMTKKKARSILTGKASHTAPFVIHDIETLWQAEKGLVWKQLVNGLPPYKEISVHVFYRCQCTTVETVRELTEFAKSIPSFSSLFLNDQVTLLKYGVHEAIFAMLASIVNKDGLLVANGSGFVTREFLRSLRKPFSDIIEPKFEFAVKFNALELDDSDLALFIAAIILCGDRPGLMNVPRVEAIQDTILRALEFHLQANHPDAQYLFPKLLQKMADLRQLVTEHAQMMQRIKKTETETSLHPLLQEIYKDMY

T3: full-length PPARδ, split nano-luciferase (nano-PCA) fusion (human, UniProt Q03181 1-441)
T3 construct: wild-type human PPARδ, printed as residues 1-470; The clones of the HEK293T screen are not described; also called FL-PPARδ; intact PPARδ; source: HEK293T (screen) and Huh7, transfected, in cells
T3 sequence (looked up): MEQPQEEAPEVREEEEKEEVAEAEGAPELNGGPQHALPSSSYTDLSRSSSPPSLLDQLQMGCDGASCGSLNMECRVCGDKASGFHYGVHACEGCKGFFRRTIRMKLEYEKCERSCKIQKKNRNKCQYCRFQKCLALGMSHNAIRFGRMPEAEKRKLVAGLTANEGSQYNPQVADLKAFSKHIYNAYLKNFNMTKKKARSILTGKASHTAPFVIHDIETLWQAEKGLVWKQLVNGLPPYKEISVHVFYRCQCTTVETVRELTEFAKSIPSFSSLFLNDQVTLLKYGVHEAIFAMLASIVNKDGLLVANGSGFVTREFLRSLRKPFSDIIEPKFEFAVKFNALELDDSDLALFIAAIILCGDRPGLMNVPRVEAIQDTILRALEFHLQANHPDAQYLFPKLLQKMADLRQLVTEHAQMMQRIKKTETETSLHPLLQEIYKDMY


Legend:
[1] = biological target: T1, purified PPARδ ligand-binding domain …
[2] = biological target: T2, purified full-length PPARδ, Cy5-labelled; assay: temperature related intensity change (TRIC); 50 nM Cy5-labelled FL-PPARδ or PPARδ LBD with LTPs (10 µM-610 pM), overnight at 4 °C; 20 mM Hepes pH 8.3, 200 mM NaCl, 5% glycerol, 0.05% tween-20, 0.5 mM TCEP; Dianthus NT.23 Pico; conditions: both partners purified
[3] = biological target: T3, full-length PPARδ, split …; assay: split reporter (BiFC, NanoBiT); nano-PCA in transfected Huh7 cells (100 ng/well of each fusion); fresh culture media or DMEM F-12 with 0.5% serum (mutant panel in 0.5% serum); signal normalized to the highest negative control; conditions: partners not purified

Row | Kd [1] [µM] | Kd [2] [µM] | percent decrease of the interaction relative to wild-type PC-TP [3] [%] | Binder
1 | 4.23 | ~2.4 |  | purified PC-TP (natural protein, human, PC-TP coding region in pMCSG7; the structure of PC-TP solved here is PDB 7U9D; 0.01% soy lecithin was added to the cultures at induction; also called LTP; source: E. coli BL21 DE3, purified (IMAC, Superdex 75 SEC)) MELAAGSFSEEQFWEACAELQQPALAGADWQLLVETSGISIYRLLDKKTGLYEYKVFGVLEDCSPTLLADIYMDSDYRKQWDQYVKELYEQECNGETVVYWEVKYPFPMSNRDYVYLRQRRDLDMEGRKIHVILARSTSMPQLGERSGVIRVKQYKQSLAIESDGKKGSKVFMYYFDNPGGQIPSWLINWAAKNGVPNFLKDMARACQNYLKKT
2 |  |  | ~45 | PC-TP R78E, split nano-luciferase (nano-PCA) fusion (natural protein, human, UniProt Q9UKL6 1-214, looked up, source: Huh7, transfected, in cells) MELAAGSFSEEQFWEACAELQQPALAGADWQLLVETSGISIYRLLDKKTGLYEYKVFGVLEDCSPTLLADIYMDSDYEKQWDQYVKELYEQECNGETVVYWEVKYPFPMSNRDYVYLRQRRDLDMEGRKIHVILARSTSMPQLGERSGVIRVKQYKQSLAIESDGKKGSKVFMYYFDNPGGQIPSWLINWAAKNGVPNFLKDMARACQNYLKKT
3 |  |  | ~45 | PC-TP R120H, split nano-luciferase (nano-PCA) fusion (natural protein, human, UniProt Q9UKL6 1-214, looked up, source: Huh7, transfected, in cells) MELAAGSFSEEQFWEACAELQQPALAGADWQLLVETSGISIYRLLDKKTGLYEYKVFGVLEDCSPTLLADIYMDSDYRKQWDQYVKELYEQECNGETVVYWEVKYPFPMSNRDYVYLRQHRDLDMEGRKIHVILARSTSMPQLGERSGVIRVKQYKQSLAIESDGKKGSKVFMYYFDNPGGQIPSWLINWAAKNGVPNFLKDMARACQNYLKKT
4 |  |  | ~45 | PC-TP Y114R, split nano-luciferase (nano-PCA) fusion (natural protein, human, UniProt Q9UKL6 1-214, looked up, source: Huh7, transfected, in cells) MELAAGSFSEEQFWEACAELQQPALAGADWQLLVETSGISIYRLLDKKTGLYEYKVFGVLEDCSPTLLADIYMDSDYRKQWDQYVKELYEQECNGETVVYWEVKYPFPMSNRDRVYLRQRRDLDMEGRKIHVILARSTSMPQLGERSGVIRVKQYKQSLAIESDGKKGSKVFMYYFDNPGGQIPSWLINWAAKNGVPNFLKDMARACQNYLKKT
